Experiments:
GFP-14-3-3β = GFP-14-3-3β co-IP with LC-MS/MS, untreated GFP-14-3-3β versus GFP control (14-3-3 interactome); assay type: binding, human
[1] = test system: GFP-14-3-3β and its binding proteins; assay: GFP-14-3-3β co-IP with LC-MS/MS label-free quantification, untreated versus PP1c-treated; design: species or system human
[2] = untreated vs GFP, LFQ intensities, replicates 1-3
[3] = PP1 vs untreated, LFQ intensities, replicates 1-3

Molecule	Difference (log2), untreated vs GFP (GFP-14-3-3β; [2]) [log2]	Difference (log2), PP1 vs untreated [1, 3] [log2]	Difference (log2), untreated vs GFP (GFP-14-3-3β; log2 difference, pairwise comparison untreated vs GFP, label-free quantification, 3 replicates each)	Difference (log2), PP1 vs untreated ([1]; log2 difference, pairwise comparison PP1 vs untreated, label-free quantification, 3 replicates each)
GIGYF2 (protein, UniProt Q6Y7W6 2-1299, looked up) GRB10-interacting GYF protein …: AAETQTLNFGPEWLRALSSGGSITSPPLSPALPKYKLADYRYGREEMLALFLKDNKIPSDLLDKEFLPILQEEPLPPLALVPFTEEEQRNFSMSVNSAAVLRLTGRGGGGTVVGAPRGRSSSRGRGRGRGECGFYQRSFDEVEGVFGRGGGREMHRSQSWEERGDRRFEKPGRKDVGRPNFEEGGPTSVGRKHEFIRSESENWRIFREEQNGEDEDGGWRLAGSRRDGERWRPHSPDGPRSAGWREHMERRRRFEFDFRDRDDERGYRRVRSGSGSIDDDRDSLPEWCLEDAEEEMGTFDSSGAFLSLKKVQKEPIPEEQEMDFRPVDEGEECSDSEGSHNEEAKEPDKTNKKEGEKTDRVGVEASEETPQTSSSSARPGTPSDHQSQEASQFERKDEPKTEQTEKAEEETRMENSLPAKVPSRGDEMVADVQQPLSQIPSDTASPLLILPPPVPNPSPTLRPVETPVVGAPGMGSVSTEPDDEEGLKHLEQQAEKMVAYLQDSALDDERLASKLQEHRAKGVSIPLMHEAMQKWYYKDPQGEIQGPFNNQEMAEWFQAGYFTMSLLVKRACDESFQPLGDIMKMWGRVPFSPGPAPPPHMGELDQERLTRQQELTALYQMQHLQYQQFLIQQQYAQVLAQQQKAALSSQQQQQLALLLQQFQTLKMRISDQNIIPSVTRSVSVPDTGSIWELQPTASQPTVWEGGSVWDLPLDTTTPGPALEQLQQLEKAKAAKLEQERREAEMRAKREEEERKRQEELRRQQEEILRRQQEEERKRREEEELARRKQEEALRRQREQEIALRRQREEEERQQQEEALRRLEERRREEEERRKQEELLRKQEEEAAKWAREEEEAQRRLEENRLRMEEEAARLRHEEEERKRKELEVQRQKELMRQRQQQQEALRRLQQQQQQQQLAQMKLPSSSTWGQQSNTTACQSQATLSLAEIQKLEEERERQLREEQRRQQRELMKALQQQQQQQQQKLSGWGNVSKPSGTTKSLLEIQQEEARQMQKQQQQQQQHQQPNRARNNTHSNLHTSIGNSVWGSINTGPPNQWASDLVSSIWSNADTKNSNMGFWDDAVKEVGPRNSTNKNKNNASLSKSVGVSNRQNKKVEEEEKLLKLFQGVNKAQDGFTQWCEQMLHALNTANNLDVPTFVSFLKEVESPYEVHDYIRAYLGDTSEAKEFAKQFLERRAKQKANQQRQQQQLPQQQQQQPPQQPPQQPQQQDSVWGMNHSTLHSVFQTNQSNNQQSNFEAVQSGKKKKKQKMVRADPSLLGFSVNASSERLNMGEIETLDDY	2.445	-0.9344		
TMEM33 (protein, UniProt P57088 2-247, looked up) Transmembrane protein 33: ADTTPNGPQGAGAVQFMMTNKLDTAMWLSRLFTVYCSALFVLPLLGLHEAASFYQRALLANALTSALRLHQRLPHFQLSRAFLAQALLEDSCHYLLYSLIFVNSYPVTMSIFPVLLFSLLHAATYTKKVLDARGSNSLPLLRSVLDKLSANQQNILKFIACNEIFLMPATVFMLFSGQGSLLQPFIYYRFLTLRYSSRRNPYCRTLFNELRIVVEHIIMKPACPLFVRRLCLQSIAFISRLAPTVP			0.3842	1.645
HSD17B4 (protein, UniProt P51659 1-736, looked up) Peroxisomal multifunctional …: MGSPLRFDGRVVLVTGAGAGLGRAYALAFAERGALVVVNDLGGDFKGVGKGSLAADKVVEEIRRRGGKAVANYDSVEEGEKVVKTALDAFGRIDVVVNNAGILRDRSFARISDEDWDIIHRVHLRGSFQVTRAAWEHMKKQKYGRIIMTSSASGIYGNFGQANYSAAKLGLLGLANSLAIEGRKSNIHCNTIAPNAGSRMTQTVMPEDLVEALKPEYVAPLVLWLCHESCEENGGLFEVGAGWIGKLRWERTLGAIVRQKNHPMTPEAVKANWKKICDFENASKPQSIQESTGSIIEVLSKIDSEGGVSANHTSRATSTATSGFAGAIGQKLPPFSYAYTELEAIMYALGVGASIKDPKDLKFIYEGSSDFSCLPTFGVIIGQKSMMGGGLAEIPGLSINFAKVLHGEQYLELYKPLPRAGKLKCEAVVADVLDKGSGVVIIMDVYSYSEKELICHNQFSLFLVGSGGFGGKRTSDKVKVAVAIPNRPPDAVLTDTTSLNQAALYRLSGDWNPLHIDPNFASLAGFDKPILHGLCTFGFSARRVLQQFADNDVSRFKAIKARFAKPVYPGQTLQTEMWKEGNRIHFQTKVQETGDIVISNAYVDLAPTSGTSAKTPSEGGKLQSTFVFEEIGRRLKDIGPEVVKKVNAVFEWHITKGGNIGAKWTIDLKSGSGKVYQGPAKGAADTTIILSDEDFMEVVLGKLDPQKAFFSGRLKARGNIMLSQKLQMILKDYAKL	-0.9814	-0.9107		
